B1: ZNF263 (parent)
chain: LLRHQRIHTGERPYKCPECGKSFS

Variants of: B1
Assay: protein stability index of a GFP-peptide fusion (GPS, HEK-293T) (PSI 1-6); higher = more stable
Settings: c terminus: a fixed tail appended
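Also: lentivirally expressed fusions sorted by FACS into six bins by GFP to DsRed ratio, PSI derived from sequencing read proportions per bin multiplied by bin number.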

Protein stability index of substitutions, site by site:
H8: M 2.24 | A 1.86 | W 1.73 | P 3.3 | V 2.48 | T 2 | Y 1.59 | G 2.39 | R 1.37 | N 2.88 | K 2.44 | E 2.52 | S 2.61 | D 2.53 | I 1.8 | L 1.85 | F 2.04 | Q 2.52 | C 2.03
R12: K 2.43 | N 1.59 | V 2.91 | E 2.71 | S 2.11 | D 1.93 | W 1.7 | C 2.48 | I 2.64 | Y 2.6 | F 2.65 | H 2.67 | T 2.45 | M 2.08 | A 2.11 | P 2.52 | L 2.69 | G 3.4 | Q 2.67
E11: P 2.39 | R 3.3 | S 2.34 | C 1.96 | K 2.04 | F 1.56 | V 2.56 | M 1.99 | T 2.51 | D 2.34 | L 1.99 | Y 1.88 | W 2.01 | Q 2.51 | G 2.63 | H 2.7 | N 2.32 | A 2.26 | I 1.78
E18: I 2.42 | C 1.86 | K 2.64 | R 2.41 | D 1.96 | H 2.5 | N 2.24 | G 2.3 | W 3.24 | P 2.37 | Q 2.41 | A 2.25 | M 2.46 | F 2.48 | S 2.25 | Y 3.02 | V 2.15 | L 2.24 | T 2.25
C19: L 2.15 | M 2.07 | R 3.57 | Y 2.45 | T 3.42 | Q 3.3 | A 3.18 | W 1.66 | F 2.12 | E 3.31 | G 3.3 | S 2.45 | D 3.28 | H 3.21 | I 1.81 | V 3.08 | P 2.87 | K 3.08
C16: S 2.73 | P 3.06 | Y 2.12 | V 2.16 | G 3.9 | T 3.4 | R 3.74 | H 3.04 | I 2.77 | E 3.33 | D 3.46 | A 3.17 | M 2.36 | L 2.38 | Q 3.2 | W 3.15 | F 2.48 | N 2.76 | K 3.44
K21: F 1.82 | Y 2.19 | A 2.93 | M 1.59 | D 2.38 | G 1.83 | T 2.16 | E 2.53 | V 1.91 | L 2.77 | C 2.11 | Q 2.75 | S 1.84 | N 2.05 | R 2.01 | P 2.61 | H 2.82 | I 1.68
I7: Y 1.77 | S 1.91 | P 2.56 | T 2.41 | V 2.27 | H 2.68 | M 2.66 | N 2.1 | W 2.17 | L 1.94 | R 2.55 | K 2.14 | D 3.06 | G 2.48 | E 2.64 | C 2.48 | A 2.39 | Q 2.31 | F 2.79
P13: L 2.73 | M 2.5 | G 2.36 | V 2.54 | E 2.48 | D 2.11 | W 2.83 | C 2.16 | R 1.72 | I 1.87 | N 2.69 | Y 1.89 | T 2.56 | A 3.1 | S 2.02 | H 1.64 | K 1.78 | F 2.01 | Q 3.02
G20: L 1.66 | S 1.95 | E 1.66 | Q 1.86 | R 1.79 | K 2.27 | N 2.35 | C 1.87 | F 2.99 | I 1.75 | D 2.52 | M 2.13 | A 2.05 | Y 1.76 | W 1.46 | H 2.21 | P 1.88 | V 2.42 | T 2.17
G10: L 2.3 | E 3.06 | P 2.15 | I 2.29 | T 3.22 | W 1.69 | A 2.36 | F 2.07 | Q 2.86 | M 2.23 | Y 2.17 | R 2.46 | K 2.24 | S 2.64 | D 2.56 | C 2.49 | H 2.61 | V 2.43 | N 3.12
T9: I 2.53 | W 1.49 | F 2.06 | N 2.07 | M 2.21 | Q 3.1 | L 3.29 | P 2.45 | G 3.33 | S 1.88 | R 2.14 | K 2.41 | E 2.62 | H 2.21 | A 1.85 | Y 2.56 | V 2.34 | C 2.19 | D 2.73
F23: Q 3.71 | D 3.13 | E 2.38 | K 2.83 | R 1.93 | A 2.87 | P 3.39 | L 2.14 | I 2.51 | M 1.99 | C 3.29 | N 2.68 | G 2.75 | H 3.64
P17: F 1.94 | A 1.83 | S 1.66 | D 2.19 | Q 2.78 | W 1.74 | L 1.91 | R 2.6 | T 2.38 | N 2.39 | E 2.26 | M 1.83 | G 2.88 | I 2.6 | V 2.05 | K 2.15 | Y 1.39 | C 2 | H 1.8
K15: Y 2.17 | L 1.98 | D 2.74 | I 2.46 | G 2.62 | F 2.41 | P 1.74 | V 2.4 | S 2.48 | N 2.19 | H 2.29 | M 2.15 | Q 2.46 | E 2.66 | W 2.03 | R 2 | T 1.97 | C 2.16 | A 2.52
S22: D 1.63 | K 2.35 | Q 2.5 | A 2.41 | M 2.05 | W 2.09 | T 2.23 | H 2.29 | N 1.4 | C 2.37 | L 1.92 | P 2.36 | G 2.65 | E 1.88 | F 2.2 | Y 2.38 | I 2.88 | V 2.98 | R 2.4
R6: K 2.81 | D 2.78 | H 3.73 | L 2.41 | C 5 | N 2.59 | W 2.06 | Y 1.91 | Q 2.53 | S 2.51 | T 2.85 | E 2.74 | P 2.56 | G 2.08 | V 2.78 | I 2.22 | F 1.41 | M 2.08
Y14: A 2.74 | C 3.63 | N 2.39 | R 1.94 | G 2.34 | D 2.24 | F 2.64 | V 2.38 | K 1.59 | E 2.85 | L 2.48 | W 2.35 | S 1.95 | P 2.09 | T 2.25 | M 2.42 | H 2.13 | Q 2.11 | I 2.23

Reference: the supplement of paper PMC10567573
